The values below come from article PMC5808845.

The target of one series is GST-TRF2 (human, UniProt Q15554 43-542). The experiment in a line: EMSA. In general terms: Mobility shift assays separate free from complexed probe on a gel.
A further series has as its target GST-TRF1 (human, UniProt P54274 1-439). The series can be described thus: EMSA.

Sequence of GST-TRF2 (Q15554 43-542): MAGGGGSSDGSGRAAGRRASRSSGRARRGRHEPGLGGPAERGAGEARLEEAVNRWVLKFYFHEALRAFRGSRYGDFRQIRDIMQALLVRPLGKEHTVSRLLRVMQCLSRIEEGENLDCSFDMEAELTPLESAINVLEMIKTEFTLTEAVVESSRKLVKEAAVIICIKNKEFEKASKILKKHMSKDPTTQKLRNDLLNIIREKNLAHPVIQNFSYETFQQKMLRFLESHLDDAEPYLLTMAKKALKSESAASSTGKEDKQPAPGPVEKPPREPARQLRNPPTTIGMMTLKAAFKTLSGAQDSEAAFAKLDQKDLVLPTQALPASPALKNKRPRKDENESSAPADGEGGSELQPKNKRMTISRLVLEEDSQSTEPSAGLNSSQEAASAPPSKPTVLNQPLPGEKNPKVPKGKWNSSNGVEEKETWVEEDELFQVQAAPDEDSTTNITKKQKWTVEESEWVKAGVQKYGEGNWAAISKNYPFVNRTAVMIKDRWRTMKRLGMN
Sequence of GST-TRF1 (P54274 whole entry): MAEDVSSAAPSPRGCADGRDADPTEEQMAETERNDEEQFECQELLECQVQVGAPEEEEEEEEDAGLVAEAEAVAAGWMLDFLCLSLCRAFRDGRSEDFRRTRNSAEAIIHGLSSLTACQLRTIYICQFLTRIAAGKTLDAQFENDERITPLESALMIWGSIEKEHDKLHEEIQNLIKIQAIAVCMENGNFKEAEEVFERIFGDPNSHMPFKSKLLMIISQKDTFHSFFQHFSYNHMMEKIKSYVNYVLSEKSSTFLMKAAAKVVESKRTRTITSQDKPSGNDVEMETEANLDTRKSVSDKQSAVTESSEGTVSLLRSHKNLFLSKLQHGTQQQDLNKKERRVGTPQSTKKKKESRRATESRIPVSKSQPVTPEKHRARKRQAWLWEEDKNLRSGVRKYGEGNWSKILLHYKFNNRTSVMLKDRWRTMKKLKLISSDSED

For CCCUAACCCUAACCCUAACCCUAACCCUAA (ssRNA) [(CCCUAA)5 RNA], the binding result with GST-TRF2 and in the series with GST-TRF1 was “no binding” in each case.

AGAGAUUGCCUGACGUCAGAGAGCUAGCGA (ssRNA) [random RNA]: the binding result in the series with GST-TRF2 and with GST-TRF1 was “no binding” in each case.

For the molecule TATCGATAAGCTTGATATCGAATTCCTGCA (ssDNA) [random DNA], the binding result with GST-TRF2 and in the series with GST-TRF1 was “no binding” in each case.

For the molecule TTAGGGTTAGGGTTAGGGTTAGGGTTAGGG (ssDNA) [(TTAGGG)5 DNA], the binding result in the series with GST-TRF2 and in the series with GST-TRF1 was “no binding” each time.
